Measurements from US20230134580A1.

Columns and labels:
[1] = molecular target: human TIGIT (T cell immunoreceptor with Ig and ITIM domains), expressed on cells (human) (UniProt Q495A1); assay: cell-based or functional assay
[2] = molecular target: recombinant cynomolgus TIGIT (cynomolgus monkey); assay: ELISA on recombinant cyno-TIGIT
[3] = molecular target: human TIGIT (T cell immunoreceptor with Ig and ITIM domains), expressed on cells (human) (UniProt Q495A1); assay: whole cell binding assays, n=3 (FIG. 10A)
[4] = molecular target: recombinant human TIGIT extracellular domain (ECD) (human) (UniProt Q495A1); assay: ELISA on recombinant human TIGIT ECD
Chain of recombinant human TIGIT extracellular domain (ECD) (human) (Q495A1 22-138 limits assumed): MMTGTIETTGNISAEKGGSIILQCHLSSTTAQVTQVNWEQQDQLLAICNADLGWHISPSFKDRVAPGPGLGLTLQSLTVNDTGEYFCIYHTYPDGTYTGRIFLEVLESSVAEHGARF

[5] = molecular target: human TIGIT (T cell immunoreceptor with Ig and ITIM domains), expressed on cells (human) (UniProt Q495A1); assay: flow cytometry (CytoFlex), whole cell binding to cells expressing human TIGIT, MFI of AlexaFlour 488; one representative of three experiments

Chain of human TIGIT (T cell immunoreceptor with Ig and ITIM domains), expressed on cells (human) (Q495A1 22-244 limits assumed): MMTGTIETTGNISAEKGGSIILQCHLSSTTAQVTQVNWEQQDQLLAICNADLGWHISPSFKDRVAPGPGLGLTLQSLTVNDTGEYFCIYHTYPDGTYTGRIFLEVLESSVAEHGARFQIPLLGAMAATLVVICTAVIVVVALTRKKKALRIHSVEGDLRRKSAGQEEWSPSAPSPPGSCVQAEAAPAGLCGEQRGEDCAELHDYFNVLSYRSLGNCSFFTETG

EC50, NFAT luciferase reporter assay (n=3) [1]: 0.72 nM | EC50 (read off the curve) [2]: 0.1 µg/mL | EC50 [3]: 0.61 nM | EC50 (read off the curve) [4]: 0.1 µg/mL | EC50 (read off the curve) [5]: 0.5 nM
Substance: Reference Ab 2 (same amino acid sequences as Tiragolumab, U.S. 2017/0088613 A1) (antibody)
